Reference: patent US8357523B2, “Beta-glucosidase variant enzymes and related polynucleotides” (Codexis, Inc., priority 2009, dated 2013)

B1: 67 (protein)
chain: STAIAQEGAAPAAILHPEKWPRPATQRLIDPAVEKRVDALLKQLSVEEKVGQVIQGDIGTITPEDLRKYPLGSILAGGNSGPNGDDRAPPKEWLDLADAFYRVSLEKRPGHTPIPVLFGIDAVHGHGNIGSATIFPHNIALGATHDPELLRRIGEVTAVEMAATGIDWTFAPALSVVRDDRWGRTYEGFSEDPEIVAAYSAAIVEGVQGKFGSKDFMACGRIVASAKHFLADGGTDQGRDQGDARISEDELIRIHNAGYPPAIDAGVLTVMASFSSWQGIKHHGHKQLLTDVLKGQMGFNGFIVGDWNAHDQVPGCTKFNCPTSLIAGLDMYMAADSWKQLYENTLAQVKDGTIPMARLDDAVRRILRVKVLAGLFEKPAPKDRPGLPGLETLGSPEHRAVGREAVRKSLVLLKNDKGTLPLSPKARVLVAGDGADNIGKQSGGWTISWQGTGNRNDEFPGATSILGGIRDAVADAGGSVEFDVAGQYKTKPDVAIVVFGEEPYAEFQGDVETLEYQPDQKQDLALLKKLKDQGIPVVAVFLSGRPMWVNPELNASDAFVAAWLPGTEGGGVADVLFTDKAGKVQHDFAGKLSYSWPRTAAQTTVNRGDADYNPLFAYGYGLTYKDKSKVGTLPEESGVPAEARQNAGIYFRAGALRLPGRFL
B2: 71 (protein)
chain: STAIAQEGAAPAAILHPEKWPRPATQRLIDPAVEKRVDALLKQLSVEEKVGQVIQGDIGTITPEDLRKYPLGSILAGGNSGPNGDDRAPPKEWLDLADAFYRVSLEKRPGHTPIPVLFGIDAVHGHGNIGSATIFPHNIALGATHDPELLRRIGEVTAVEMAATGIDWTFAPALSVVRDDRWGRTYEGFSEDPEIVAAYSALIVEGVQGKFGSKDFMAPGRIVASAKHFLADGGTDQGRDQGDARISEDELIRIHNAGYPPAIDAGVLTVMASFSSWQGIKHHGHKQLLTDVLKGQMGFNGFIVGDWNAHDQVPGCTKFNCPTSLIAGLDMYMAADSWKQLYENTLAQVKDGTIPMARLDDAVRRILRVKVLAGLFEKPAPKDRPGLPGLETLGSPEHRAVGREAVRKSLVLLKNDKGTLPLSPKARVLVAGDGADNIGKQSGGWTISWQGTGNRNDEFPGATSILGGIRDAVADAGGSVEFDVAGQYKTKPDVAIVVFGEEPYAEFQGDVETLEYQPDQKQDLALLKKLKDQGIPVVAVFLSGRPMWVNPELNASDAFVAAWLPGTEGGGVADVLFTDKAGKVQHDFAGKLSYSWPRTAAQTTVNRGDADYNPLFAYGYGLTYKDKSKVGTLPEESGVPAEARQNAGIYFRAGALRLPGRFL
B3: 70 (protein)
chain: STAIAQEGAAPAAILHPEKWPRPATQRLIDPAVEKRVDALLKQLSVEEKVGQVIQGDIGTITPEDLRKYPLGSILAGGNSGPNGDDRAPPKEWLDLADAFYRVSLEKRPGHTPIPVLFGIDAVHGHGNIGSATIFPHNIALGATHDPELLRRIGEVTAVEMAATGIDWTFAPALSVVRDDRWGRTYEGFSEDPEIVAAYSAAIVEGVQGKFGSKDFMALGRIVASAKHFLADGGTDQGRDQGDARISEDELIRIHNAGYPPAIDAGVLTVMASFSSWQGIKHHGHKQLLTDVLKGQMGFNGFIVGDWNAHDQVPGCTKFNCPTSLIAGLDMYMAADSWKQLYENTLAQVKDGTIPMARLDDAVRRILRVKVLAGLFEKPAPKDRPGLPGLETLGSPEHRAVGREAVRKSLVLLKNDKGTLPLSPKARVLVAGDGADNIGKQSGGWTISWQGTGNRNDEFPGATSILGGIRDAVADAGGSVEFDVAGQYKTKPDVAIVVFGEEPYAEFQGDVETLEYQPDQKQDLALLKKLKDQGIPVVAVFLSGRPMWVNPELNASDAFVAAWLPGTEGGGVADVLFTDKAGKVQHDFAGKLSYSWPRTAAQTTVNRGDADYNPLFAYGYGLTYKDKSKVGTLPEESGVPAEARQNAGIYFRAGALRLPGRFL
B4: 72 (protein)
chain: STAIAQEGAAPAAILHPEKWPRPATQRLIDPAVEKRVDALLKQLSFEEKVGQVIQGDIGTITPEDLRKYPLGSILAGGNSGPNGDDRAPPKEWLDLADAFYRVSLEKRPGHTPIPVLFGIDAVHGHGNIGSATIFPHNIALGATHDPELLRRIGEVTAVEMAATGIDWTFAPALSVVRDDRWGRTYEGFSEDPEIVAAYSAAIVEGVQGKFGSKDFMAPGRAVASAKHFLADGGTDQGRDQGDARISEDELIRIHNAGYPPAIDAGVLTVMASFSSWQGIKHHGHKQLLTDVLKGQMGFNGFIVGDWNAHDQVPGCTKFNCPTSLIAGLDMYMAADSWKQLYENTLAQVKDGTIPMARLDDAVRRILRVKVLAGLFEKPAPKDRPGLPGLETLGSPEHRAVGREAVRKSLVLLKNDKGTLPLSPKARVLVAGDGADNIGKQSGGWTISWQGTGNRNDEFPGATSILGGIRDAVADAGGSVEFDVAGQYKTKPDVAIVVFGEEPYAEFQGDVETLEYQPDQKQDLALLKKLKDQGIPVVAVFLSGRPMWVNPELNASDAFVAAWLPGTEGGGVADVLFTDKAGKVQHDFAGKLSYSWPRTAAQTTVNRGDADYNPLFAYGYGLTYKDKSKVGTLPEESGVPAEARQNAGIYFRAGALRLPGRFL
B5: 69 (protein)
chain: STAIAQEGAAPAAILHPEKWPRPATQRLIDPAVEKRVDALLKQLSVEEKVGQVIQGDIGTITPEDLRKYPLGSILAGGNSGPNGDDRAPPKEWLDLADAFYRVSLEKRPGHTPIPVLFGIDAVHGHGNIGSATIFPHNIALGATHDPELLRRIGEVTAVEMAATGIDWTFAPALSVVRDDRWGRTYEGFSEDPEIVAAYSAAIVEGVQGKFGSKDFMATGRIVASAKHFLADGGTDQGRDQGDARISEDELIRIHNAGYPPAIDAGVLTVMASFSSWQGIKHHGHKQLLTDVLKGQMGFNGFIVGDWNAHDQVPGCTKFNCPTSLIAGLDMYMAADSWKQLYENTLAQVKDGTIPMARLDDAVRRILRVKVLAGLFEKPAPKDRPGLPGLETLGSPEHRAVGREAVRKSLVLLKNDKGTLPLSPKARVLVAGDGADNIGKQSGGWTISWQGTGNRNDEFPGATSILGGIRDAVADAGGSVEFDVAGQYKTKPDVAIVVFGEEPYAEFQGDVETLEYQPDQKQDLALLKKLKDQGIPVVAVFLSGRPMWVNPELNASDAFVAAWLPGTEGGGVADVLFTDKAGKVQHDFAGKLSYSWPRTAAQTTVNRGDADYNPLFAYGYGLTYKDKSKVGTLPEESGVPAEARQNAGIYFRAGALRLPGRFL
B6: 68 (protein)
chain: STAIAQEGAAPAAILHPEKWPRPATQRLIDPAVEKRVDALLKQLSVEEKVGQVIQGDIGTITPEDLRKYPLGSILAGGNSGPNGDDRAPPKEWLDLADAFYRVSLEKRPGHTPIPVLFGIDAVHGHGNIGSATIFPHNIALGATHDPELLRRIGEVTAVEMAATGIDWTFAPALSVVRDDRWGRTYEGFSEDPEIVAAYSAAIVEGVQGKFGSKDFMAIGRIVASAKHFLADGGTDQGRDQGDARISEDELIRIHNAGYPPAIDAGVLTVMASFSSWQGIKHHGHKQLLTDVLKGQMGFNGFIVGDWNAHDQVPGCTKFNCPTSLIAGLDMYMAADSWKQLYENTLAQVKDGTIPMARLDDAVRRILRVKVLAGLFEKPAPKDRPGLPGLETLGSPEHRAVGREAVRKSLVLLKNDKGTLPLSPKARVLVAGDGADNIGKQSGGWTISWQGTGNRNDEFPGATSILGGIRDAVADAGGSVEFDVAGQYKTKPDVAIVVFGEEPYAEFQGDVETLEYQPDQKQDLALLKKLKDQGIPVVAVFLSGRPMWVNPELNASDAFVAAWLPGTEGGGVADVLFTDKAGKVQHDFAGKLSYSWPRTAAQTTVNRGDADYNPLFAYGYGLTYKDKSKVGTLPEESGVPAEARQNAGIYFRAGALRLPGRFL

Test: High throughput cellobiose assay: fold improvement in cellobiase activity of CelA variants over a control enzyme (Tables 2A-2D, 3, 5, 6, 7)
Format: biochemical
Conditions: 3.3 g/l cellobiose, 50° C. and pH 6.5; compared to native CelA (SEQ ID NO: 4)

| Molecule | Fold improvement over wildtype CelA |
| --- | --- |
| B1 | + (+ = 1.1 to 2.0 fold improvement over native CelA (SEQ ID NO: 4)) |
| B2 | + (+ = 1.1 to 2.0 fold improvement over native CelA (SEQ ID NO: 4)) |
| B3 | + (+ = 1.1 to 2.0 fold improvement over native CelA (SEQ ID NO: 4)) |
| B4 | + (+ = 1.1 to 2.0 fold improvement over native CelA (SEQ ID NO: 4)) |
| B5 | + (+ = 1.1 to 2.0 fold improvement over native CelA (SEQ ID NO: 4)) |
| B6 | + (+ = 1.1 to 2.0 fold improvement over native CelA (SEQ ID NO: 4)) |
